The text below walks through data of patent US20170176432A1 (OSAKA UNIVERSITY, published 2017).

In experiment [1] the target is T1, human β2-glycoprotein I (β2-GPI) (human, UniProt P02749 20-345).
T1 construct: whole, on cells
T1 sequence (looked up): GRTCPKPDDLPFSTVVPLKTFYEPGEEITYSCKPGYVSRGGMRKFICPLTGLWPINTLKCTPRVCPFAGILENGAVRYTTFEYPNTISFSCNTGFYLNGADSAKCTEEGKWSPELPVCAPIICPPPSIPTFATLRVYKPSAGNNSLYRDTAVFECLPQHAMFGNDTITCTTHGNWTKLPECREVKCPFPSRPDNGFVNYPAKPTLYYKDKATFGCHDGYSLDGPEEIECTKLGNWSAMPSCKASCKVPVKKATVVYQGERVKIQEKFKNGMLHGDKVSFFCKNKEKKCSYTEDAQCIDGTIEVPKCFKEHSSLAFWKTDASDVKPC
As to the kind of experiment: flow cytometry of surface β2-GPI on 293T; HLA-DRB1*15:01.

Experiment [2] addresses T2, human thyroglobulin (TG) (human, UniProt P01266 20-2768).
T2 construct: whole, on cells; the tag is not described
The experiment is described as follows: flow cytometry of surface TG (anti-histidine antibody) on 293T; HLA-DRB1*15:01. Background: In flow cytometry, cells or beads pass a laser one at a time.

Experiment [3] has as its target T1, human β2-glycoprotein I (β2-GPI). The experiment is described as follows: flow cytometry of surface β2-GPI on 293T; HLA-DRB4*01:03.
Experiment [4] concerns the target T2, human thyroglobulin (TG). As to the kind of experiment: flow cytometry of surface TG (anti-histidine antibody) on 293T; HLA-DRB4*01:03.
The target of experiment [5] is T1, human β2-glycoprotein I (β2-GPI). As to the kind of experiment: flow cytometry of surface β2-GPI on 293T; HLA-DRB3*02:02.
For experiment [6] the target is unchanged. The experiment is described as follows: flow cytometry of surface β2-GPI on 293T; HLA-DRB1*14:06.

T2 sequence (P01266 20-2768): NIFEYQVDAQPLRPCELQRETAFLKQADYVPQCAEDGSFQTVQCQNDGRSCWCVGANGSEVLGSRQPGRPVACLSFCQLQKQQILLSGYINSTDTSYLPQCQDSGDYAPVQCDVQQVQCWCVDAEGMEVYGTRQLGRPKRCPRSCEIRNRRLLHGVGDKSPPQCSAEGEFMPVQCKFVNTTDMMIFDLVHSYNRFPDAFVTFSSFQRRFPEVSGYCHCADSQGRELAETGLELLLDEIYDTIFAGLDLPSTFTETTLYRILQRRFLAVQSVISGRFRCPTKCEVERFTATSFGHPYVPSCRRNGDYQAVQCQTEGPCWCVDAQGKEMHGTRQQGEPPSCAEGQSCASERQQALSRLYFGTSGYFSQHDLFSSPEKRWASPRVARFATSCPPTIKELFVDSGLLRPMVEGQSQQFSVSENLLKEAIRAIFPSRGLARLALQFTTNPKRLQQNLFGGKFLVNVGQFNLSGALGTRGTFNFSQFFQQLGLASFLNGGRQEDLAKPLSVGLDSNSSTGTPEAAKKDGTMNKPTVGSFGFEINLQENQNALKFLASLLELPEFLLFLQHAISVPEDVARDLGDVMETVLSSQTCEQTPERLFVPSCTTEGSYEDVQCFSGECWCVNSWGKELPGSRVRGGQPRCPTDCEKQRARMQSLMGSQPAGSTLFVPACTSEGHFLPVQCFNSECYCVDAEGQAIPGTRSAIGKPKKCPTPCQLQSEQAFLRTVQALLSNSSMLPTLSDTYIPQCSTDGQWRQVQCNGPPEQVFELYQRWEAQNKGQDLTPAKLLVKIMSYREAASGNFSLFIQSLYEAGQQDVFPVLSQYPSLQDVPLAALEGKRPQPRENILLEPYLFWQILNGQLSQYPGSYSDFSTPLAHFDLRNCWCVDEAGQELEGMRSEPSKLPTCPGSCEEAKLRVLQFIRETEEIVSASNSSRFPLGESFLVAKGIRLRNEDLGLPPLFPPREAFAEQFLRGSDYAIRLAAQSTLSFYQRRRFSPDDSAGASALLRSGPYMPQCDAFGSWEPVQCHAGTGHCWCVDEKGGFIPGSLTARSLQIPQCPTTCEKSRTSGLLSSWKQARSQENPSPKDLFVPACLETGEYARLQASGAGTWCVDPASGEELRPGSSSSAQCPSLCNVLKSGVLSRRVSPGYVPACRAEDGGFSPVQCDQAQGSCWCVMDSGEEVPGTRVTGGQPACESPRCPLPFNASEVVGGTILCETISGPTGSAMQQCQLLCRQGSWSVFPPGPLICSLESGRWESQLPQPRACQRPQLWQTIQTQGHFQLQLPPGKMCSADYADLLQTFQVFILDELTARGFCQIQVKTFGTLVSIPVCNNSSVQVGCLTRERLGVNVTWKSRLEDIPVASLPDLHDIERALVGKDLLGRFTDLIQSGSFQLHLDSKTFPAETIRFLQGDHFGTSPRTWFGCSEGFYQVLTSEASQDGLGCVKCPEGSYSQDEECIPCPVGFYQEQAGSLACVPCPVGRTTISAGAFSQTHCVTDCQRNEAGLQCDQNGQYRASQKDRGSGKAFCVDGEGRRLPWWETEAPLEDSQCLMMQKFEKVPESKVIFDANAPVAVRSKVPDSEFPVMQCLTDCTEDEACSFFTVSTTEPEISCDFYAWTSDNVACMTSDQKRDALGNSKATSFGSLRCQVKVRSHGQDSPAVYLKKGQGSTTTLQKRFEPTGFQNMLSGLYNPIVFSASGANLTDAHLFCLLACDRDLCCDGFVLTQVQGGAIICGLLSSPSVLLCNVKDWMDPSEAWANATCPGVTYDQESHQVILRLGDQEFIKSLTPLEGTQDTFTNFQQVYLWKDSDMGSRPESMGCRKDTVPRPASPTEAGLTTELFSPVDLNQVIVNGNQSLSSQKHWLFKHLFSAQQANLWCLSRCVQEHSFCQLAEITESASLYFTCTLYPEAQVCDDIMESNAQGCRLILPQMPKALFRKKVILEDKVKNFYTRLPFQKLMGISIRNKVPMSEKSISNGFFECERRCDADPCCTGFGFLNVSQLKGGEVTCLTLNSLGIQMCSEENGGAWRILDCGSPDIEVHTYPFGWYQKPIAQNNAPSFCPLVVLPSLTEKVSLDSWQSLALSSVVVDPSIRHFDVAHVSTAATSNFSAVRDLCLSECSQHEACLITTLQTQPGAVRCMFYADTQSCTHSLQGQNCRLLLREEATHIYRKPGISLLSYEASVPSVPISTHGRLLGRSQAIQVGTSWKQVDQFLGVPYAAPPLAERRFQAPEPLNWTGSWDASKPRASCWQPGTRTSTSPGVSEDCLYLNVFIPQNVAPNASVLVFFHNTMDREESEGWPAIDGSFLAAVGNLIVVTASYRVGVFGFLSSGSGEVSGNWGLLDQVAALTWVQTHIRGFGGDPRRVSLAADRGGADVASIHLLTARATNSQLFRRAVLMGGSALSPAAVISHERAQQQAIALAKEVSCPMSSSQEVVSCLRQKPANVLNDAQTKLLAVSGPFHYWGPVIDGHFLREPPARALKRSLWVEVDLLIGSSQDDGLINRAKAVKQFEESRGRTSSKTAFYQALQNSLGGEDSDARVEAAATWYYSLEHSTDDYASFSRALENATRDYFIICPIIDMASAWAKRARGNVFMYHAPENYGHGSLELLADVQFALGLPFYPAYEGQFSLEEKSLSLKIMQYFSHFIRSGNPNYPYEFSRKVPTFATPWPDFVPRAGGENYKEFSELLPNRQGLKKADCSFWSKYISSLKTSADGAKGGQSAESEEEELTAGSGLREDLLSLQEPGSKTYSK

B1: HLA-DR (HLA-DRA*01:01/HLA-DRB1*15:01) (other, human)
MHC II alpha: not shown
MHC II beta: not shown
notes: whole, on cells; also called HLA-DR15
For B1, the binding result in experiment [1] and in experiment [2] was “binds” each time.

B2: HLA-DR (HLA-DRA*01:01/HLA-DRB4*01:03) (other, human)
MHC II alpha: not shown
MHC II beta: not shown
notes: whole, on cells; also called HLA-DR53
Take B2: the binding result in experiment [3] and in experiment [4] was “binds” throughout.

B3: HLA-DR (HLA-DRA*01:01/HLA-DRB3*02:02) (other, human)
MHC II alpha: not shown
MHC II beta: not shown
notes: whole, on cells
Take B3: the binding result in experiment [5] is “binds”.

B4: HLA-DR (HLA-DRA*01:01/HLA-DRB1*14:06) (other, human)
MHC II alpha: not shown
MHC II beta: not shown
notes: whole, on cells
Consider B4, for which the binding result in experiment [6] was “binds”.
